Biological target: Biotinylated RpoS (S. Typhimurium ATCC 14028S, UniProt D0ZVL4 1-330, biotin (EZ-Link-Biotin; sites not stated))
Assay: BLI

Chain of Biotinylated RpoS (D0ZVL4 whole entry): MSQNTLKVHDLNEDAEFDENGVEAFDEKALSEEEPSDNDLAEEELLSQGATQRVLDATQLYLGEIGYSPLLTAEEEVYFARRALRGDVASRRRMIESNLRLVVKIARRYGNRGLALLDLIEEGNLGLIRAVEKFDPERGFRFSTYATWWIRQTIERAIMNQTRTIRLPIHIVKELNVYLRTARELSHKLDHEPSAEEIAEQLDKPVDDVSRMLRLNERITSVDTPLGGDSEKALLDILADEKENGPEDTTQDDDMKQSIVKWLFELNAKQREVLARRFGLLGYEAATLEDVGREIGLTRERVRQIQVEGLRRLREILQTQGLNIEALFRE

Kd: 43.6 nM
B1: MicN (purified, His-tag cleaved) (natural protein, S. Typhimurium ATCC 14028S)
chain: MKEGFYWIQHNGRVQVAYYTHGVTEDLETGQTIIGVWHLTQGDDICHNGEAEILAGPLEPPI
